The results in this text go back to the supplement of paper PMC12455559.

± gives the standard deviation of the averaged measurements.

Series [1] can be described thus: purified protein yield per well (BCA); higher = higher soluble expression. The gist of the method:
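Candidate enzymes were made in 2 mL autoinduction cultures of E. coli C41(DE3) with 100 µg/mL kanamycin, at 37 °C for 2 h and then 18 °C for 40 h, and purified with Ni-charged magnetic beads and SUMO protease cleavage. The Pierce Rapid Gold BCA kit gave purified protein yield per well. Values lower than 25 ug (0.1 mg/mL) are below the detection threshold.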

A short description of series [2]: melting temperature (DSF); higher = more thermostable. In short, it runs like this: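 Values are melting temperatures from differential scanning fluorimetry. Candidate enzymes were expressed in E. coli C41(DE3), purified on nickel beads and freed by SUMO protease cleavage. In sealed PCR plates on a Bio-Rad CFX96, 45 μL enzyme (0 to 0.3 mg/mL) was combined with 5 μL 5X Sypro Orange. Fluorescence was recorded from 25 °C for 250 cycles, rising 0.3 °C per cycle at a ramp of 0.3 °C/s.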

Series [3] is described as follows: PET hydrolysis, aromatic products released after 48 h (umol product/mg enzyme); higher = more PET depolymerization activity. The gist of the method: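 Tagless, SUMO-cleaved candidate enzymes were purified on nickel beads, and 5 μg (50 μL) was added to 3.5 mg amorphous PET film or crystalline PET powder in 450 μL buffer. Buffers were 50 mM NaCitrate (pH 4.5, 5.5), 50 mM NaPhosphate (pH 6.5, 7.5) or glycine (pH 8.5). Sealed plates were incubated 48 h at 40 or 60 °C without shaking. PET hydrolysis activity is the aromatic product in the supernatant, read by absorbance at 260 and 280 nm against buffer blanks and expressed per mg enzyme.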

Where [4] appears, read: substrate: aFilm, 40 °C, pH 5.5.
[5] abbreviates: substrate: aFilm, 40 °C, pH 6.5.
Setting [6] is: substrate: aFilm, 40 °C, pH 7.5.
[7] abbreviates: substrate: aFilm, 60 °C, pH 5.5.
[8] abbreviates: substrate: aFilm, 60 °C, pH 6.5.
Where [9] appears, read: substrate: aFilm, 60 °C, pH 7.5.
The mark [10] stands for this setting: substrate: cryPow, 40 °C, pH 5.5.
Setting [11] is: substrate: cryPow, 40 °C, pH 6.5.
Where [12] appears, read: substrate: cryPow, 40 °C, pH 7.5.
Where [13] appears, read: substrate: cryPow, 40 °C, pH 8.5.
[14] abbreviates: substrate: cryPow, 60 °C, pH 5.5.
Setting [15] is: substrate: cryPow, 60 °C, pH 6.5.
[16] abbreviates: substrate: cryPow, 60 °C, pH 7.5.
Where [17] appears, read: substrate: cryPow, 60 °C, pH 8.5.
Where [18] appears, read: substrate: aFilm, 40 °C, pH 4.5.
Where [19] appears, read: substrate: aFilm, 60 °C, pH 4.5.
Setting [20] is: substrate: cryPow, 40 °C, pH 4.5.
The mark [21] stands for this setting: substrate: cryPow, 60 °C, pH 4.5.

Consider “ANPYERGPDPTLASVEATSGTFAYASLSVSSGNGFGGGTIYYPTSTTDGTFAGIVTCPGFTNSGSSMAWFGKVLASQGFVTLVMNPKSNLDFPDARATQMLAALDWLTNSSSVKTRIDATRLGVLGQSMGGGATLKASKTRPSLKASFATAPYNSDKDWSTNTVPQFLFGMQNDTTAAVTNHALKFYNSLPATTPKIYAELRGAGHSTATSPNTSIRRYAVSFMKRNLDNDTRYSQFLCPGPTITSSSPLSAFMSNCLF [DP080]”, for which the “purified protein yield per well” value in series [1] stood at 291 µg. This sequence also gave a melting temperature in series [2] of 63.1 C. For the same sequence, the PET hydrolysis in series [3] (setting [4]) was below 3; in series [3] (setting [5]), below 3; in series [3] (setting [6]), below 3; in series [3] (substrate: aFilm, 40 °C, pH 8.5), 1.5 ± 2.1; in series [3] (setting [7]) it was below 3; in series [3] (setting [8]), below 3. Also, the PET hydrolysis was below 3 in series [3] (setting [9]); below 3 in series [3] (substrate: aFilm, 60 °C, pH 8.5); below 3 in series [3] (setting [10]); 2 ± 2.8 in series [3] (setting [11]); 6 in series [3] (setting [12]); 8 ± 1.4 in series [3] (setting [13]). Moreover, the PET hydrolysis in series [3] (setting [14]), in series [3] (setting [15]), in series [3] (setting [16]) and in series [3] (setting [17]) was below 3 throughout.

In the case of “ANPYERGPNPTQALLEARSGPFSVSSERAWRLGSDGFGGGTIYYPRENNTYGAVAISPGYTGTQASVAWLGERIASHGFVVITIDTNTTLDQPDSRADQLEAALDHMVDGASSTVRSRIDRNRLAVMGHSMGGGGTLRLASQRPDLKAAIPLTPWHLNKSWSNVQVPTLIIGADLDTIAPVLTHAEPFYNSIPTSTRKAYLELDGATHFAPNITNSTIGMYSVAWLKRFVDEDTRYTQFLCPGPRTGLFSDVEEYRSTCPF [TEP014]”, in series [1], the “purified protein yield per well” value worked out at 267 µg. In series [2], this sequence came in with a melting temperature of 54.1 C. Besides, the PET hydrolysis in series [3] (setting [18]), in series [3] (setting [4]), in series [3] (setting [5]), in series [3] (setting [6]), in series [3] (setting [19]) and in series [3] (setting [7]) was below 3 throughout. Moreover, the PET hydrolysis in series [3] (setting [8]) was below 3; in series [3] (setting [9]), below 3; in series [3] (setting [20]), below 3; in series [3] (setting [10]) it was below 3; in series [3] (setting [11]), 1.5 ± 2.1; in series [3] (setting [12]), 4.5 ± 0.71. Moreover, the PET hydrolysis in series [3] (setting [21]), in series [3] (setting [14]), in series [3] (setting [15]) and in series [3] (setting [16]) was below 3 in each case.

Regarding “APDTVVGNPFARGPDPTKESIEAERGPFAVATEKVPGGKGFGGGTIHYPTDTSQGTFGAIAVAPGFTESESAIAWYGPRLASQGFVVITISTNGLWDLPASRADQLLAALRHVTDASQIKSRVDRDRLAVMGHSMGGGGSLIAARNNPALKATIPLTGWNPNTSFSDLKVPTFVVSAQNDFIAPDGSHSRPFYQSLPASLNKAYMRLAGVGHMAPVNPNVTIAKYSISWLKRFVDNDTRYSQFLCPLPTGDPKIAAYEGTCPLS [DP008]”, the “purified protein yield per well” value in series [1] was found to be 67 µg. For the same sequence, the melting temperature in series [2] came to 50.5 C. The PET hydrolysis is 4 in series [3] (setting [10]); 20 in series [3] (setting [11]); 40 in series [3] (setting [12]); 50 in series [3] (setting [13]); below 3 in series [3] (setting [14]); 9 in series [3] (setting [15]). In addition, the PET hydrolysis in series [3] (setting [16]) and in series [3] (setting [17]) was 9 throughout.

For “APGPSAPCSNCTRGPNPTEASLKSDRGPFTTARFSVSGFLKGFGDSTVYYPTNTTGRMGAIAVIPGYLSYESSIEWWGPRLASHGFVVMTMNTSTIYDQPDSRATQLSKALDYLIAQSNTSSSPIYNKIDSTRLGAIGWSMGGGGSLKLSTQRSLNAIIPQAPWYSGSNSFNTIKTPALILACSADTVAPVSVHASPFYNRIPGSTPKAFLEIYGGSHFCANSGYPNEDLLGLYGIAWMKRFIDFDNRYSQFLCGPNHEGDFAISDYRQNCPY [ESM096]”, the “purified protein yield per well” value in series [1] was 33.4 µg. Moreover, the melting temperature in series [2] was 52 C. Also, the PET hydrolysis in series [3] (setting [20]) was below 3; in series [3] (setting [10]) it was below 3; in series [3] (setting [11]), 6; in series [3] (setting [12]), 22.

“APNAAIAAAPRVAPAANPYERGPAPTEESVKAEKGPFDIAQMPVPGGAGVFGGGTIWYPKDEAGPFGAVVVSPGFMTLEPLIQWYGRTLASHGFVVMTMATITPIDPPFSRGDELRSALDYLVTKSTVKDKIDPTRTALMGHSMGGGGTLDAASKLPDLKAAIPLAPWNLDYAPPAKIKAPTLIIGADNDPIAPTAAFADPFYAALTTQNRAYLKLKNAGHTFSFLGYNPTITKYTVSWLKRFVDNDTRYDQFLCPIPAASDTVAAYQGTCPLT [DP091]”: the “purified protein yield per well” value in series [1] was determined as 32 µg. The sequence further showed a melting temperature in series [2] of 53.8 C. The PET hydrolysis in series [3] (setting [10]), in series [3] (setting [11]), in series [3] (setting [12]) and in series [3] (setting [13]) was below 3 throughout.

With “APPARVAALATTAYQRGPAPTLSGVRAALGPFSYSTASVSAAATGYTFGGGTVYYPDDTSQGTFGGIAVTPGYTGTEGSIAWLGPRLASQGFVVITIATKSLYDQPTARGQQLLAALDYLKTYSPAAVRQRLDPQRLAVSGHSMGGGGALYAVWSRPSLKAAVPLAPYHTIKNWSAITVPTLIEAGTADTVTPVGTFAEPIYQSLTGASERAYAEVAGANHLTFTAENPLIGGLEVAWMKRFVDDDARYDQFLCPAPTDPGLTEYRDSCPTS [TEP101]”, the “purified protein yield per well” value in series [1] was found to be 377 µg. Further, in series [2], the melting temperature stood at 56.5 C. The PET hydrolysis in series [3] (setting [18]), in series [3] (setting [4]), in series [3] (setting [5]), in series [3] (setting [6]), in series [3] (setting [19]) and in series [3] (setting [7]) was below 3 throughout. Further, the PET hydrolysis was below 3 in series [3] (setting [8]); below 3 in series [3] (setting [9]); below 3 in series [3] (setting [20]); 9 ± 1.4 in series [3] (setting [10]); 18.5 ± 0.71 in series [3] (setting [11]); 24 ± 2.8 in series [3] (setting [12]). Moreover, the PET hydrolysis is below 3 in series [3] (setting [21]), 3 in series [3] (setting [14]), 7.5 ± 0.71 in series [3] (setting [15]) and 7.5 ± 0.71 in series [3] (setting [16]).
